From the DeepSol protein solubility set

Experiment: soluble on expression in E. coli; label from the status in PepcDB or PDB records
With “MSSEDFYRELKQRSLFEAIHLIEQELLKVESQIGTDALPKNEKLNLKVNASLGFENAQLVSTKPLGKDKLALETNLIGLTGEQGVLPQHYSELALHRLKEGDHAMVDFYDIFNHRLLSLYYRSWQLSQLTIQARAHAKNQRSPLTDCMSSLTGGGNDLALHYGGMYASPTRSKGALKSILECLSGCQIRIHEFQGQWMRLSKSEQTRLVSKSMPEGQFAQLGAGASLGKKAWNINASTTIEFLPKESKQVTNLLPKTNTLKTIKQVAGDFIGKHKHVKWQLTTKHSLLPQVQISKQQGQLGVGSVLKKHERTEDRNITITV” the “soluble on expression in E. coli” value was “not soluble”. With “MAIHNRAGQPAQQSDLINVAQLTAQYYVLKPEAGNAEHAVKFGTSGHRGSAGRHSFNEPHILAIAQAIAEERAKNGITGPCYVGKDTHALSEPAFISVLEVLAANGVDVIVQENNGFTPTPAVSNAILVHNKKGGPLADGIVITPSHNPPEDGGIKYNPPNGGPADTNVTKVVEDRANALLAGGLQGVKRISLDAAMASGHVKAVDLVQPFVEGLADIVDMAAIQKAGLTLGVDPLGGSGIEYWKRIAEHYKLNLTLVNDQVDQTFRFMHLDKDGAIRMDCSSECAMAGLLALRDKFDLAFANDPDYDRHGIVTPAGLMNPNHYLAVAINYLFQHRPLWGKDVAVGKTLVSSAMIDRVVNDLGRKLVEVPVGFKWFVDGLFDGSFGFGGEESAGASFLRFDGTPWSTDKDGIIMCLLAAEITAVTGKNPQEHYNELAARFGAPSYNRLQASATSAQKAALSKLSPEMVSASTLAGDPITARLTAAPGNGASIGGLKVMTDNGWFAARPSGTEDAYKIYCESFLGEEHRKQIEKEAVEIVSEVLKNA” the “soluble on expression in E. coli” value was “soluble”. In the case of “MHHHHHHSSGVDLGTENLYFQSMEEHDSPTEASQPIVEEEETKTFKDLGVTDVLCEACDQLGWTKPTKIQIEAIPLALQGRDIIGLAETGSGKTGAFALPILNALLETPQRLFALVLTPTRELAFQISEQFEALGSSIGVQSAVIVGGIDSMSQSLALAKKPHIIIATPGRLIDHLENTKGFNLRALKYLVMDEADRILNMDFETEVDKILKVIPRDRKTFLFSATMTKKVQKLQRAALKNPVKCAVSS”, the “soluble on expression in E. coli” value is reported as “soluble”. For “LSAPDSITVTVADHNGVAVLSIGGEIDLITAAALEEAIGEVVADNPTALVIDLSAVEFLGSVGLKILAATSEKIGQSVKFGVVARGSVTRRPIHLMGLDKTFRLFSTLHDALTGVRGGRIDR”, the “soluble on expression in E. coli” value was “soluble”. With “MGSDKIHHHHHHMFTTQIHLKVLAMMLLCGLLNACSQTPQQCSSAIITTWSSAHSQITQDITTLSSTEFQGRKTDSEGARLTQAYLITRFTEMGLQPWQPNFAVPFSFQHQFSTVSGVNIIATIAAKTRSNRWRVITAHYDHLGQTANKMYPGADDNASGIAGMMAIAAQWQENPPLDDVNLMIVATDAEEPGLYGSYALVTLLQQYPLMDIELSVNLDMIGHPDRRRAIYMEGQKNLSNFESIKPLLMQQTQLCIRTHHTNLLSGRMKKSDWLRASDHYPFHKAGYSWVYFGVPPHAQYHTADDTIATLDIDFIVAVAETVYQMLSIDKLTKAP” the “soluble on expression in E. coli” value was “not soluble”. For “MIKKIYFGNDHAAYEIKDQIITHLKQKGYQIIDEGAQAALGSVDYSTYALKVANDVVNDTKNDSIGILLCGTGIGMNIAASKVHGTRVALVYNESSAKLAKEHNNANIITIGARENSLNQILKMIDDFLTSKFLGERHQKRLDIIAKYEKEQNS”, the “soluble on expression in E. coli” value was “soluble”. In the case of “MGSDKIHHHHHHEDDNIRPFGKDVEAGAPGVVSEIKVKNIPGGAVISYQLPDNPDIMYVRARYKVGQGKEMEARASVYANELTVNGFGDMNEHEVELSCVDRMENEGATTVAVVTPLKPSVLTTFESLEVNATFGGVYVNFKNPEKASLSIHVVTTDSLNQPYEAHVQYTQAEKGPFYVRGFKAEERMFDIYVVDRWGNSSDTLYNVLTPYEETRLNKKLFYPYILPNDVACNAWGGNLAYAWNDDYTPALFVHSPGGDTFPMWFTFDMGVTAKLSRYKFYHLFMEEHAFQRGNLKTWEVWGRTDTPPADGSWDGWTKLMDCESHKPSGLPVGQHTAEDWEYLQAGEDFEFPAEAPPVRYIRFKVLETWGGMDFIHFTEFTFWGNVISNN”, the “soluble on expression in E. coli” value is reported as “not soluble”. In the case of “MNHPNAPFQPPMDIDAVWQHSLIRVTDAFALPPIVLRVDDAIIGTLGNFSVSTGKAKAKKTFNVCALVAAALVNGQVLEYQASFPESKRNILYFDTEQSPYHCQLVLQRILALAELPLDQQPEHLLFSHLRSIASPEERRAIIRYAIYHTPNVGLVVIDGIRDLMHDINNSAEATNLMGDLMQWTGERNIHIQTVLHLNKGDDNARGHIGTELNNKTESVLLITKDNSDADRSVVSASIIRSKPFPPFAFRLTEVDNICLRELDTDFTAKDAQPFSYQELSGEEHRTALREAFGQACELGYGDLLKRLSSSYLGVSGRPYGQTKLKELLRFLVNKRMLVKASRGRYQFNPDFHY”, the “soluble on expression in E. coli” value is reported as “not soluble”. In the case of “METDNVLKRILEIEHGFVHILDAAKEILSSSSEERSFAIASEFFDHEAYQPRMLATAILGHLAGTNSEALLFLKDRVSLDMNWRVQEMLAKAFDTFCKEQGYEKSLPVIREWLDSDNANVVRAVTEGLRIWTSRPFFKENPCLAIEWLSRHRGHESEYVRKSVGNALKDISKKHKESVAEELKKWDLSDPLVLFTYKHASKHPDKDIKKQ”, the “soluble on expression in E. coli” value is reported as “not soluble”. In the case of “GIDPFTMLHIEFITDLGAKVTVDVESADKLLDVQRQYGRLGWTSGEVPVGGYQFPLENEPDFDWSLIGARKWTNPEGEEMILHRGHAYRRRELEAVDSRKMKLPAAVKYSRGAKNTDPEHVREKADGEFEYVTLAIFRGGKRQERYAVPGSNRPQAGAPARSAATRAQGARPGAVAVQDEETPF”, the “soluble on expression in E. coli” value is reported as “soluble”. In the case of “MLINARISVRSYPKYQRFSFFYALLFKRIDLILAQSKEDKKRLLNLGAKKVVDFLNIKRFSKPVITSFYPKNPSALNIVLASTHEGEEELGLKAFLELKKTFKNARLIVVPRHPERFKSVQDLLQNTLKTTPFSWECFSSKGFVECDILLVDSLGELNNFYQIADIVILGGSFVKMGGHNPLEPAFFNARLITGEYIFNQVALFELVKPYKIVPKEDLLDALLDYKNLGMARFLENGHDLNELLAFIKHLEHHHHHH”, the “soluble on expression in E. coli” value is reported as “soluble”. With “MKNPYVQITDQEQYKKSIRRIPPKDPNIFLIERPTAGEIIALWWTTSSRGKSTDKYIPKYFKRIYRVDMIKQRKLFIKANVISEENNTYVLTELGEMLVHKYFYIIEEHNNSSNDSFNTERRKLADKILYSLGGEI” the “soluble on expression in E. coli” value was “not soluble”. In the case of “MHHHHHHSSGVDLGTENLYFQSGVVTHEQFKAALRMVVDQGDPRLLLDSYVKIGEGSTGIVCLAREKHSGRQVAVKMMDLRKQQRRELLFNEVVIMRDYQHFNVVEMYKSYLVGEELWVLMEFLQGGALTDIVSQVRLNEEQIATVCEAVLQALAYLHAQGVIHRDIKSDSILLTLDGRVKLSDFGFCAQISKDVPKRKSLVGTPYWMAPEVISRSLYATEVDIWSLGIMVIEMVDGEPPYFSDSPVQAMKRLRDSPPPKLKNSHKVSPVLRDFLERMLVRDPQERATAQELLDHPFLLQTGLPECLVPLIQLYRKQTSTC”, the “soluble on expression in E. coli” value is reported as “soluble”. For “LALLYEVTCLNKPGLVDPVDAGAHQDMDVFTFLESSVVLTPYFETFVQAGTELRHLPIEATFRTIRQVGLEAERAMFEATEGINTHKGAIFSLGIFLAVCGRLMIWETPCTLQLFQQTLQTMTQDLLADFENLATNELEKLTWGERLFVQHGLTGIRGEAQQGYPAVFEQGVPYYQKHQGTQQQKLIDTLLYLSLYVEDTNLIKRSQNVQIFEVYQPLIQEYFALGGTQTLRGTLCLERLNHLFKEKNWSIGGSADALILVV”, the “soluble on expression in E. coli” value was “not soluble”. For “MCHNGRMESLSLSHHFLIAMPGMGDPLFAKSLVYLCEHGEHGAMGLIINKPSGIAMAQLFDQIDLPLDDEDTRTGLVYFGGPVQPDRGFVLHQPAGNWQSSLMVTDDIALTTSKDVLVAVSEGKKPEQLLISLGYAGWSAGQLEKEIADNGWLTVPAEPSIVFDLPYEERYDAAMALLGFDPSLLSSDVGHALEHHHHHH”, the “soluble on expression in E. coli” value was “soluble”. For “VQASDRTWQSNFIRRWYFTETVEYRPLVKYDASMSWDERTVSALEGAFRSEVRARRVNGPHRDVIVSLDGAEFLVRWLTTGWPRQVAEALHATSRPDILAAPTMSPGARKAAHDAGVGWVDESGAADIHYRNTSTGTTLVIETKGAPPAPLDARIGWRRATLAVCEALLANIAGPTVASVVEATGLSMGSSAQALKFLEKNGHLASATARGPKSARLIVDRDALLDAYAEAADKLRSPISISTGVLWRDPTAGVVKAGQLWDAAGIEWAATSALSASLLAPMQTEIAPMEIYVPGRSWSDLRRAAMAAGLQEIAGGRLILRFFPTPACARLTEQNLQGFRSMLWPRVYADLRTAGVRGEDAAEHLREAMTK”, the “soluble on expression in E. coli” value was “not soluble”.
